Assay results reported in PMC7453904, “Intrahepatic heteropolymerization of M and Z alpha-1-antitrypsin” (JCI Insight, 2020).

Tests used:
[1] = biological target: Z A1AT subunit of MZ heterozygote liver polymers (human (endogenous in liver tissue)); test: negative-stain electron microscopy of liver polymers; polymers formed in vivo, extracted from inclusion bodies of explant liver and purified; imaged with and without Fab2H2, which marks M subunits; subunits counted
[2] = biological target: T1, plasma-purified monomeric native M alpha-1-antitrypsin (Homo sapiens (Human)., UniProt P01009); test: SPR; Biacore T100; mAb2H2 amine-coupled to a CM5 chip; A1AT analytes 0–2 μM in PBS with 0.05% v/v Tween-20 at 30 μL/min; maximal responses fit by a hyperbolic function; conditions: both partners purified
T1 construct: Plasma glycoprotein; also called M A1AT; native M A1AT
T1 sequence (P01009 25-418): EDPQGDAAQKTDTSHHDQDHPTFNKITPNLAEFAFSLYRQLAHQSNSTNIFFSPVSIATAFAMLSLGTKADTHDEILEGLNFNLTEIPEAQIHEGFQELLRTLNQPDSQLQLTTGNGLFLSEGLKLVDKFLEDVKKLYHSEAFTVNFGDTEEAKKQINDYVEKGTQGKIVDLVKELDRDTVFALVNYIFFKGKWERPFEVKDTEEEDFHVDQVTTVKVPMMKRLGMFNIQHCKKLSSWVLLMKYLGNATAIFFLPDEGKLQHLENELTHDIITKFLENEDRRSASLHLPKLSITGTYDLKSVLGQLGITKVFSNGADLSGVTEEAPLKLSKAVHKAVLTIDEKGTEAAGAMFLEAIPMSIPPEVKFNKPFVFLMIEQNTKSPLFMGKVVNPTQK

Kd [2]	Molecule	mean length in subunits of circular polymers without a detectable M component [1]	mean length in subunits of linear polymers without a detectable M component [1]
–	Z A1AT subunit of MZ heterozygote liver polymers (natural protein)	6.6 subunits	6.5 subunits
447 nM	monoclonal antibody mAb2H2 (antibody, V domains shown, Whole mouse monoclonal antibody; Raised against heat-induced and denaturant-induced polymers of plasma A1AT; also called clone 2H2; source: hybridoma from splenocytes of immunized BALB/c mice; in culture medium (screen) and purified (HiTrap Protein G)) VH: EVQLEESGGGLVKPGGSLKLSCAASGFAFSIYDMSWVRQTPEKRLEWVAYISSGGGTTYYPDTVKGRFTISRDNAKNTLYLQMSSLKSEDTAIYYCARHAGVHYWGQGTTLTVSS VL: DIVMTQSPSSMYASLGERVTITCKASQDINSYLSWFQQKPGKSPKNLIYRANRLVDGVPSRFSGSGSGQDYSLTISSLEYEDMGIYYCLQYDEFPWTFGGGTKLESK	–	–
